Test results from article PMC8097376 (EMBO Reports, 2021).

Key:
[1] = molecular target: T1, RBD mutant derived from SARS-CoV-2 strain B.1.1.7 (UK) (SARS-CoV-2, B.1.1.7 (RBD N501Y), N501Y); test: BLI; settings: both partners purified
T1 construct: also called RBD_(B.1.1.7); source: Expi293 cells, purified

[2] = molecular target: T2, RBD mutant derived from SARS-CoV-2 strain B.1.351 (South Africa) (SARS-CoV-2, B.1.351 (RBD K417N, E484K, …, K417N | E484K | N501Y)); test: BLI; settings: both partners purified
T2 construct: also called RBD_(B.1.351); source: Expi293 cells, purified

B1: nanobody NM1226 (VHH)
VHH: QVQLVESGGGSVQPGGSLRLSCLGSGSLDYYAIGWFRQAPGKEREGVSCIASSGDRTIYADSVKGRFTISRDYGKNTVYLQMNSLKPEDTAMYYCAALQGSYYYTGFVANEYDYWGQGAPVTVSS
Work on B1 yielded a Kd [1] of ~5.4 nM and a Kd [2] of ~5.5 nM.
